These binders were tested against T1, CD3 epsilon homodimer protein (UniProt P07766 23-126) (assay: SPR Biacore T200, CD3e homodimer on chip, vs unaltered GLS3000 antibody).
T1 construct: also called CD3 (CD3 epsilon)
T1 sequence (P07766 23-126): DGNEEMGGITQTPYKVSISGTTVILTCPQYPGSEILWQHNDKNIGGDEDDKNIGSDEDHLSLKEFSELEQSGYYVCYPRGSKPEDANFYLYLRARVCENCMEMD

| Binder | ratio of amounts bound (Z=Y/X) |
| --- | --- |
| GLS3000 R29L (antibody, name in Kabat numbering, V domains shown, one-arm IgG as m2) VH: QVQLVESGGGVVQPGRSLRLSCAASGFTFSNAWMHWVRQAPGKGLEWVAQIKAKSNNYATYYAESVKGRFTISRDDSKNSLYLQMNSLKTEDTAVYYCRYVHYGAYYGVDAWGQGTTVTVSS VL: DIVMTQSPLSLPVTPGEPASISCRSSQSLVHSNLNTYLHWYQQKPGQAPRLLIYKVSNRFSGVPDRFSGSGSGTDFTLKISRVEAEDVGVYYCGQGTQVPYTFGQGTKLEIK | 0.56 |
| GLS3000 S25A (antibody, name in Kabat numbering, V domains shown, one-arm IgG as m2) VH: QVQLVESGGGVVQPGRSLRLSCAASGFTFSNAWMHWVRQAPGKGLEWVAQIKAKSNNYATYYAESVKGRFTISRDDSKNSLYLQMNSLKTEDTAVYYCRYVHYGAYYGVDAWGQGTTVTVSS VL: DIVMTQSPLSLPVTPGEPASISCRASQSLVHSNRNTYLHWYQQKPGQAPRLLIYKVSNRFSGVPDRFSGSGSGTDFTLKISRVEAEDVGVYYCGQGTQVPYTFGQGTKLEIK | 0.92 |
| GLS3000 R29T (antibody, name in Kabat numbering, V domains shown, one-arm IgG as m2) VH: QVQLVESGGGVVQPGRSLRLSCAASGFTFSNAWMHWVRQAPGKGLEWVAQIKAKSNNYATYYAESVKGRFTISRDDSKNSLYLQMNSLKTEDTAVYYCRYVHYGAYYGVDAWGQGTTVTVSS VL: DIVMTQSPLSLPVTPGEPASISCRSSQSLVHSNTNTYLHWYQQKPGQAPRLLIYKVSNRFSGVPDRFSGSGSGTDFTLKISRVEAEDVGVYYCGQGTQVPYTFGQGTKLEIK | 0.63 |
| GLS3000 S25E (antibody, name in Kabat numbering, V domains shown, one-arm IgG as m2) VH: QVQLVESGGGVVQPGRSLRLSCAASGFTFSNAWMHWVRQAPGKGLEWVAQIKAKSNNYATYYAESVKGRFTISRDDSKNSLYLQMNSLKTEDTAVYYCRYVHYGAYYGVDAWGQGTTVTVSS VL: DIVMTQSPLSLPVTPGEPASISCRESQSLVHSNRNTYLHWYQQKPGQAPRLLIYKVSNRFSGVPDRFSGSGSGTDFTLKISRVEAEDVGVYYCGQGTQVPYTFGQGTKLEIK | 0.21 |
| GLS3000 R29S (antibody, name in Kabat numbering, V domains shown, one-arm IgG as m2) VH: QVQLVESGGGVVQPGRSLRLSCAASGFTFSNAWMHWVRQAPGKGLEWVAQIKAKSNNYATYYAESVKGRFTISRDDSKNSLYLQMNSLKTEDTAVYYCRYVHYGAYYGVDAWGQGTTVTVSS VL: DIVMTQSPLSLPVTPGEPASISCRSSQSLVHSNSNTYLHWYQQKPGQAPRLLIYKVSNRFSGVPDRFSGSGSGTDFTLKISRVEAEDVGVYYCGQGTQVPYTFGQGTKLEIK | 0.68 |
| GLS3000 R54S (antibody, name in Kabat numbering, V domains shown, one-arm IgG as m2) VH: QVQLVESGGGVVQPGRSLRLSCAASGFTFSNAWMHWVRQAPGKGLEWVAQIKAKSNNYATYYAESVKGRFTISRDDSKNSLYLQMNSLKTEDTAVYYCRYVHYGAYYGVDAWGQGTTVTVSS VL: DIVMTQSPLSLPVTPGEPASISCRSSQSLVHSNRNTYLHWYQQKPGQAPRLLIYKVSNSFSGVPDRFSGSGSGTDFTLKISRVEAEDVGVYYCGQGTQVPYTFGQGTKLEIK | 0.79 |
| GLS3000 R29P (antibody, name in Kabat numbering, V domains shown, one-arm IgG as m2) VH: QVQLVESGGGVVQPGRSLRLSCAASGFTFSNAWMHWVRQAPGKGLEWVAQIKAKSNNYATYYAESVKGRFTISRDDSKNSLYLQMNSLKTEDTAVYYCRYVHYGAYYGVDAWGQGTTVTVSS VL: DIVMTQSPLSLPVTPGEPASISCRSSQSLVHSNPNTYLHWYQQKPGQAPRLLIYKVSNRFSGVPDRFSGSGSGTDFTLKISRVEAEDVGVYYCGQGTQVPYTFGQGTKLEIK | 0.31 |
| GLS3000 R54A (antibody, name in Kabat numbering, V domains shown, one-arm IgG as m2) VH: QVQLVESGGGVVQPGRSLRLSCAASGFTFSNAWMHWVRQAPGKGLEWVAQIKAKSNNYATYYAESVKGRFTISRDDSKNSLYLQMNSLKTEDTAVYYCRYVHYGAYYGVDAWGQGTTVTVSS VL: DIVMTQSPLSLPVTPGEPASISCRSSQSLVHSNRNTYLHWYQQKPGQAPRLLIYKVSNAFSGVPDRFSGSGSGTDFTLKISRVEAEDVGVYYCGQGTQVPYTFGQGTKLEIK | 0.69 |
| GLS3000 R29Y (antibody, name in Kabat numbering, V domains shown, one-arm IgG as m2) VH: QVQLVESGGGVVQPGRSLRLSCAASGFTFSNAWMHWVRQAPGKGLEWVAQIKAKSNNYATYYAESVKGRFTISRDDSKNSLYLQMNSLKTEDTAVYYCRYVHYGAYYGVDAWGQGTTVTVSS VL: DIVMTQSPLSLPVTPGEPASISCRSSQSLVHSNYNTYLHWYQQKPGQAPRLLIYKVSNRFSGVPDRFSGSGSGTDFTLKISRVEAEDVGVYYCGQGTQVPYTFGQGTKLEIK | 0.69 |
| GLS3000 R54P (antibody, name in Kabat numbering, V domains shown, one-arm IgG as m2) VH: QVQLVESGGGVVQPGRSLRLSCAASGFTFSNAWMHWVRQAPGKGLEWVAQIKAKSNNYATYYAESVKGRFTISRDDSKNSLYLQMNSLKTEDTAVYYCRYVHYGAYYGVDAWGQGTTVTVSS VL: DIVMTQSPLSLPVTPGEPASISCRSSQSLVHSNRNTYLHWYQQKPGQAPRLLIYKVSNPFSGVPDRFSGSGSGTDFTLKISRVEAEDVGVYYCGQGTQVPYTFGQGTKLEIK | 0.84 |
| GLS3000 S25I (antibody, name in Kabat numbering, V domains shown, one-arm IgG as m2) VH: QVQLVESGGGVVQPGRSLRLSCAASGFTFSNAWMHWVRQAPGKGLEWVAQIKAKSNNYATYYAESVKGRFTISRDDSKNSLYLQMNSLKTEDTAVYYCRYVHYGAYYGVDAWGQGTTVTVSS VL: DIVMTQSPLSLPVTPGEPASISCRISQSLVHSNRNTYLHWYQQKPGQAPRLLIYKVSNRFSGVPDRFSGSGSGTDFTLKISRVEAEDVGVYYCGQGTQVPYTFGQGTKLEIK | 0.53 |
| GLS3000 R77S (antibody, name in Kabat numbering, V domains shown, one-arm IgG as m2) VH: QVQLVESGGGVVQPGRSLRLSCAASGFTFSNAWMHWVRQAPGKGLEWVAQIKAKSNNYATYYAESVKGRFTISRDDSKNSLYLQMNSLKTEDTAVYYCRYVHYGAYYGVDAWGQGTTVTVSS VL: DIVMTQSPLSLPVTPGEPASISCRSSQSLVHSNRNTYLHWYQQKPGQAPRLLIYKVSNRFSGVPDRFSGSGSGTDFTLKISSVEAEDVGVYYCGQGTQVPYTFGQGTKLEIK | 0.92 |
| GLS3000 R54G (antibody, name in Kabat numbering, V domains shown, one-arm IgG as m2) VH: QVQLVESGGGVVQPGRSLRLSCAASGFTFSNAWMHWVRQAPGKGLEWVAQIKAKSNNYATYYAESVKGRFTISRDDSKNSLYLQMNSLKTEDTAVYYCRYVHYGAYYGVDAWGQGTTVTVSS VL: DIVMTQSPLSLPVTPGEPASISCRSSQSLVHSNRNTYLHWYQQKPGQAPRLLIYKVSNGFSGVPDRFSGSGSGTDFTLKISRVEAEDVGVYYCGQGTQVPYTFGQGTKLEIK | 0.67 |
| GLS3000 S25D (antibody, name in Kabat numbering, V domains shown, one-arm IgG as m2) VH: QVQLVESGGGVVQPGRSLRLSCAASGFTFSNAWMHWVRQAPGKGLEWVAQIKAKSNNYATYYAESVKGRFTISRDDSKNSLYLQMNSLKTEDTAVYYCRYVHYGAYYGVDAWGQGTTVTVSS VL: DIVMTQSPLSLPVTPGEPASISCRDSQSLVHSNRNTYLHWYQQKPGQAPRLLIYKVSNRFSGVPDRFSGSGSGTDFTLKISRVEAEDVGVYYCGQGTQVPYTFGQGTKLEIK | 0.18 |
| GLS3000 R54T (antibody, name in Kabat numbering, V domains shown, one-arm IgG as m2) VH: QVQLVESGGGVVQPGRSLRLSCAASGFTFSNAWMHWVRQAPGKGLEWVAQIKAKSNNYATYYAESVKGRFTISRDDSKNSLYLQMNSLKTEDTAVYYCRYVHYGAYYGVDAWGQGTTVTVSS VL: DIVMTQSPLSLPVTPGEPASISCRSSQSLVHSNRNTYLHWYQQKPGQAPRLLIYKVSNTFSGVPDRFSGSGSGTDFTLKISRVEAEDVGVYYCGQGTQVPYTFGQGTKLEIK | 0.65 |
| GLS3000 R54D (antibody, name in Kabat numbering, V domains shown, one-arm IgG as m2) VH: QVQLVESGGGVVQPGRSLRLSCAASGFTFSNAWMHWVRQAPGKGLEWVAQIKAKSNNYATYYAESVKGRFTISRDDSKNSLYLQMNSLKTEDTAVYYCRYVHYGAYYGVDAWGQGTTVTVSS VL: DIVMTQSPLSLPVTPGEPASISCRSSQSLVHSNRNTYLHWYQQKPGQAPRLLIYKVSNDFSGVPDRFSGSGSGTDFTLKISRVEAEDVGVYYCGQGTQVPYTFGQGTKLEIK | 0.36 |
| GLS3000 R54Q (antibody, name in Kabat numbering, V domains shown, one-arm IgG as m2) VH: QVQLVESGGGVVQPGRSLRLSCAASGFTFSNAWMHWVRQAPGKGLEWVAQIKAKSNNYATYYAESVKGRFTISRDDSKNSLYLQMNSLKTEDTAVYYCRYVHYGAYYGVDAWGQGTTVTVSS VL: DIVMTQSPLSLPVTPGEPASISCRSSQSLVHSNRNTYLHWYQQKPGQAPRLLIYKVSNQFSGVPDRFSGSGSGTDFTLKISRVEAEDVGVYYCGQGTQVPYTFGQGTKLEIK | 0.68 |
| GLS3000 R29V (antibody, name in Kabat numbering, V domains shown, one-arm IgG as m2) VH: QVQLVESGGGVVQPGRSLRLSCAASGFTFSNAWMHWVRQAPGKGLEWVAQIKAKSNNYATYYAESVKGRFTISRDDSKNSLYLQMNSLKTEDTAVYYCRYVHYGAYYGVDAWGQGTTVTVSS VL: DIVMTQSPLSLPVTPGEPASISCRSSQSLVHSNVNTYLHWYQQKPGQAPRLLIYKVSNRFSGVPDRFSGSGSGTDFTLKISRVEAEDVGVYYCGQGTQVPYTFGQGTKLEIK | 0.34 |
| GLS3000 R54E (antibody, name in Kabat numbering, V domains shown, one-arm IgG as m2) VH: QVQLVESGGGVVQPGRSLRLSCAASGFTFSNAWMHWVRQAPGKGLEWVAQIKAKSNNYATYYAESVKGRFTISRDDSKNSLYLQMNSLKTEDTAVYYCRYVHYGAYYGVDAWGQGTTVTVSS VL: DIVMTQSPLSLPVTPGEPASISCRSSQSLVHSNRNTYLHWYQQKPGQAPRLLIYKVSNEFSGVPDRFSGSGSGTDFTLKISRVEAEDVGVYYCGQGTQVPYTFGQGTKLEIK | 0.58 |
| GLS3000 R54W (antibody, name in Kabat numbering, V domains shown, one-arm IgG as m2) VH: QVQLVESGGGVVQPGRSLRLSCAASGFTFSNAWMHWVRQAPGKGLEWVAQIKAKSNNYATYYAESVKGRFTISRDDSKNSLYLQMNSLKTEDTAVYYCRYVHYGAYYGVDAWGQGTTVTVSS VL: DIVMTQSPLSLPVTPGEPASISCRSSQSLVHSNRNTYLHWYQQKPGQAPRLLIYKVSNWFSGVPDRFSGSGSGTDFTLKISRVEAEDVGVYYCGQGTQVPYTFGQGTKLEIK | 0.78 |
